Common to all, as to assay: cleavage_in_vitro
Data set [1] addresses T1, SalI-HF R107A (Streptomyces albus G) (UniProt Q53608).
T1 sequence: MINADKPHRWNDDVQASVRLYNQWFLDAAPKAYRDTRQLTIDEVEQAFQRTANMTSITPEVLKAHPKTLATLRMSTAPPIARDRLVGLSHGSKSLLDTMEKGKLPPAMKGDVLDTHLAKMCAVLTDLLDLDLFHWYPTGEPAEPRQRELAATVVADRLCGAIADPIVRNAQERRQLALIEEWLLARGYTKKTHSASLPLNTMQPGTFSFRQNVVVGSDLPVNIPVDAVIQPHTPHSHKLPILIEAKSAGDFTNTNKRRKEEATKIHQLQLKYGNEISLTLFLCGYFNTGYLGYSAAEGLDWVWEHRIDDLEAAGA
The following applies: NEB2, 37 C.

Data set [2] concerns the target T2, SalI (Streptomyces albus G) (UniProt Q53608).
T2 sequence: T1 sequence with A107R
As to conditions: NEB3, 37 C.

The subject of data set [3] is T3, AvrII (Anabaena variabilis).
T3 sequence: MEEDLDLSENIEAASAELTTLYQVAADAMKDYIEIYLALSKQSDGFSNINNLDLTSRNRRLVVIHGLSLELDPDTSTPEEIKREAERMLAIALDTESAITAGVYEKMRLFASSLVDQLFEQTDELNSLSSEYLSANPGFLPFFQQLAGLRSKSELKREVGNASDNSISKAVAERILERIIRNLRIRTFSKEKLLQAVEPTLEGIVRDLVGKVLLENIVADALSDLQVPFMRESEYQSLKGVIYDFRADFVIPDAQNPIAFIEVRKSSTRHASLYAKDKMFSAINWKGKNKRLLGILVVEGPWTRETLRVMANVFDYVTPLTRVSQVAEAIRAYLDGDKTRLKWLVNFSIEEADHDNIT
The following applies: NEB1, 37 C.

For data set [4], the system named is T4, AvrII-HF Y104F (Anabaena variabilis).
T4 sequence: T3 sequence with Y104F
As to conditions: NEB4, 37 C.

The target of the next data set is T5, PvuII (Proteus vulgaris) (UniProt P23657).
T5 sequence: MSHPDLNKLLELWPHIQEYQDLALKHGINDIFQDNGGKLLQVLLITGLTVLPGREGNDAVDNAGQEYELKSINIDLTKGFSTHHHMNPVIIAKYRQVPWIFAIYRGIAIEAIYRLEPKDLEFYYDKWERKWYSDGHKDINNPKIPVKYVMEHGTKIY
As to conditions: NEB1, 37 C.

Positions count from the first letter of the chain named. Where only a bound is given, the exact number is not on record here.

As for HindIII-digested lambda DNA, the activity (fidelity index) in data set [1] was above 64000; in data set [2], 32.
T7 DNA: the figures for the activity (fidelity index) in data set [3] and in data set [4] were 64 and above 1000, respectively.
Take pBR322: the activity (fidelity index) in the data set with PvuII (Proteus vulgaris) came to 250.
